Consider six molecules from PMC7442782, “Molecular basis for DNA repair synthesis on short gaps by mycobacterial Primase-Polymerase C” (Nature Communications, 2020).

Series [1] deals with T1, Prim–PolC (Msm Prim–PolC) (Mycolicibacterium smegmatis, UniProt A0R5T1).
T1 construct: gene ligD; residues 4-336 printed for the crystal structure (may be the ordered part of the full-length protein); N-terminal His tag, pET28, made in E. coli Origami B pLysS
T1 sequence (A0R5T1 4-336): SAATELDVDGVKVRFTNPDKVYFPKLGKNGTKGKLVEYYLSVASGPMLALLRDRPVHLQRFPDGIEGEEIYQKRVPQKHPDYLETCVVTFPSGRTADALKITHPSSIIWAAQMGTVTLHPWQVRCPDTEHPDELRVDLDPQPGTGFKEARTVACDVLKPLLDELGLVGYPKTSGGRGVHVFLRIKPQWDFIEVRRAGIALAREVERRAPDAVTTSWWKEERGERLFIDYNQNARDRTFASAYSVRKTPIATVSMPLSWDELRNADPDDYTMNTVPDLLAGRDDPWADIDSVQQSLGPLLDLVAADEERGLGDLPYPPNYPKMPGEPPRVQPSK
Briefly: X-ray crystal structure, […] Å. The class given is binding. The note with it: pre-catalytic ternary complex with 2-nt gapped DNA and two Mn2+; active site; pH 6.5.

Series [2] deals with T2, Prim-PolC (crystallisation construct) (UniProt A0R5T1 4-336).
T2 sequence: T1 sequence (A0R5T1 4-336)
Briefly: X-ray crystallography (2.2 A); Mn2+, UpNHpp; Crystals: 0.05 M Na cacodylate pH 6.5, 2 M ammonium sulfate, 0.01 M MnCl2, 285 K, 300 uM protein:600 uM DNA; 2-AP assay: 0-1 uM protein, 1 uM DNA, 5 mM Ca2+, 250 uM ATP (buffer, pH and temperature not in material). To be noted: protein: recombinant; tags: N-terminal His; gapped duplex, 2-nt gap (AA), blunt outer ends.

The target in the next series is T3, Prim-PolC WT (UniProt A0R5T1 1-350).
T3 sequence: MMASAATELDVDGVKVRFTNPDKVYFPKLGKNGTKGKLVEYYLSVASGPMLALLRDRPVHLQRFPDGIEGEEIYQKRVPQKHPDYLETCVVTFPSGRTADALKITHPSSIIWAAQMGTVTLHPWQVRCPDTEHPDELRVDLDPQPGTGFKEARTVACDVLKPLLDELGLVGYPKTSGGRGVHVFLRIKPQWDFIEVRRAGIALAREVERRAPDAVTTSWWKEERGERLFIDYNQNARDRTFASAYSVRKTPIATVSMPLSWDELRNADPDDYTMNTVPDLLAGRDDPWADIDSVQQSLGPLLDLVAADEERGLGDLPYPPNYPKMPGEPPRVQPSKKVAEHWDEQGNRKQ
The series is described as follows: 2-aminopurine fluorescence (base flipping); 5 mM Ca2+, 250 uM ATP; Crystals: 0.05 M Na cacodylate pH 6.5, 2 M ammonium sulfate, 0.01 M MnCl2, 285 K, 300 uM protein:600 uM DNA; 2-AP assay: 0-1 uM protein, 1 uM DNA, 5 mM Ca2+, 250 uM ATP (buffer, pH and temperature not in material). The note with it: protein: recombinant, tags: N-terminal His, label: 2-AP, gapped duplex.

The next series concerns the target T4, Prim-PolC N321A (UniProt A0R5T1 1-350, N321A).
T4 sequence: T3 sequence with N321A
Briefly: 2-aminopurine fluorescence (base flipping); 5 mM Ca2+, 250 uM ATP; similar to WT; Crystals: 0.05 M Na cacodylate pH 6.5, 2 M ammonium sulfate, 0.01 M MnCl2, 285 K, 300 uM protein:600 uM DNA; 2-AP assay: 0-1 uM protein, 1 uM DNA, 5 mM Ca2+, 250 uM ATP (buffer, pH and temperature not in material). The note with it: protein: recombinant; tags: N-terminal His; label: 2-AP; gapped duplex, 1-nt gap.

A further series concerns the target T5, Prim-PolC N321G (UniProt A0R5T1 1-350, N321G).
T5 sequence: T3 sequence with N321G
The description is as above. The note with it: protein: recombinant, tags: N-terminal His, label: 2-AP, gapped duplex.

Series [3] addresses T2, Prim-PolC (crystallisation construct). The series is described as follows: X-ray crystallography (2.0 A); Mn2+; PPi in one complex, 3'-dUTP in the other; Crystals: 0.05 M Na cacodylate pH 6.5, 2 M ammonium sulfate, 0.01 M MnCl2, 285 K, 300 uM protein:600 uM DNA; 2-AP assay: 0-1 uM protein, 1 uM DNA, 5 mM Ca2+, 250 uM ATP (buffer, pH and temperature not in material). The note with it: protein: recombinant; tags: N-terminal His; gapped duplex, 1-nt gap, blunt outer ends.

Numbering of substitutions follows the chain as printed.

Consider `O=c1ccn([C@@H]2O[C@H](COP(=O)(O)NP(=O)(O)OP(=O)(O)O)[C@@H](O)[C@H]2O)c(=O)[nH]1` [UpNHpp], for which the “X-ray crystal structure, 2.21 Å” value in series [1] is “a non-hydrolysable incoming UTP ribonucleotide (UpNHpp) and manganese ions were also included”.

B1: 2-nt gapped DNA T/P/D (dsDNA)
DNA 1: CGCTCGCAACGCACG
DNA 2: CGTGCG
DNA 3: GCGAGCG
modifications: 5'-phosphate on D strand
Consider B1, for which the binding result in series [2] was “binds”.

B2: 2-AP 1-nt gap substrate (dsDNA)
DNA 1: AGTCGCATAGTGTAGTCATGTCGATTCGCCATAG
DNA 2: CTATGAGCGAATCGAC
DNA 3: CGACTACACTATGCGACT
modifications: 2-aminopurine at position 15 of primer oKZ282 (written A); 5'-phosphate on downstream strand
For B2, the binding result in the series with Prim-PolC WT (1-nt gap), with Prim-PolC N321A and with Prim-PolC N321G (1-nt gap) was “binds” each time.

B3: 2-AP 2-nt gap substrate (dsDNA)
DNA 1: B2 DNA 1
DNA 2: CTATGAGCGAATCGAC
DNA 3: GACTACACTATGCGACT
modifications: 2-aminopurine at position 15 of primer oKZ282 (written A); 5'-phosphate on downstream strand
For the molecule B3, the binding result with Prim-PolC WT (2-nt gap) was “binds”.

B4: 2-AP 3-nt gap substrate (dsDNA)
DNA 1: B2 DNA 1
DNA 2: CTATGAGCGAATCGAC
DNA 3: ACTACACTATGCGACT
modifications: 2-aminopurine at position 15 of primer oKZ282 (written A); 5'-phosphate on downstream strand
Turning to B4, the binding result in the series with Prim-PolC N321G (3-nt gap) is “binds”.

B5: 1-nt gapped post-catalytic DNA (mixed)
DNA 1: CGCTCGCAACGCACG
DNA 2: CGTGCGU
?: GCGAGCG
modifications: 5'-phosphate on D strand; primer 3' terminus is 3'-deoxyuridine (ribo, incorporated in situ)
With B5, in series [3], the binding result is recorded as “binds”.
